This data set is described as follows: label from the status in PepcDB records.
On to “MAEARRDGRLPLTLVGGFLGAGKSTWLRHQLHAGRFARHHLLVNEAAETPVDNLLLGGAARLTLLAGGCACCEGQAQLRAALRAICETESGPEAGGIEGILLETSGLADPGAIAAMVAADPVLVRRLALAETLVLVDAAHGTAQLAAEPLARAQIEAAGRLVLTKPAAAPDLARLAATLRALAPEAELSAAERGVPVPLPAGAAEPYPLPPLAAAAPIRPHRLRIGAEGGWVALSTWLSALLQARGEDVVRVKGVVRTPAGRLLLQSVRRMVQPPETLPEGADLPGPAPPPRRERSC”, for which the protein production result was “failed”. As for “MAEDEIVVEEEQSQPQEITPVPPSSSSSPSLVVEDDDEMKLKHLEFIQVAAVYFAACFSTLYELAKDNAGPLKLGVENIEDCVRTVLAPLYEKFHDVPFKLLLFVDRKVDDVFFDVETYVPSLVKQASSQALTVATEVQRTGVVDTTKSIARSVRDKYEPAAEYYAATLWRLLNQLPLFPEVAHLVIPTAFYWSEKYNDAVRYVGDRDYFGAEYLPMIPIEKISDILEQDQCRAD”, the protein production result is listed as “failed”. With “MAEDTYEEECDYLFKAVLIGDSAVGKSNLLSRFSKDEFRFDSKPTIGVEFAYRNVHVGDKIIKAQIWDTAGQERFRAITSSYYRGALGALLIYDITRRTTFDNIKKWLFELRDFANPETVVVLVGNKSDLRQSREVEEDEGKTLAESEGLYFLETSALENVNVEEAFLVMIGRIHEVVTQRIASENKSNGAATPHINGNGNGTVLPVGKEIVNIHEVTATQPLLSSSSNCCFK”, the protein production entry is on record as “failed”. For “MAEELDDLTKFEAKGTSHHLPVGWLALFWGLIVFGAYYYWAYSPALGGWSQAKDLETGGASSGANLLWTIAFTAVPALVAIWMGLTQKKKAR”, the protein production result is listed as “failed”. In the case of “MAEELLAPEVIADLKARAISQPLVEHIYTADPSAHVFNGKIYIYPSHDIEAGIPFNDNGDHFGMEDYHVISLDSPDSPAVDNGVALHVKDVAWAERQMWPPDAAHKNGKYYLYFPAKRANGIFQIGVAVGDSPIGPFKAEPEAIKGSYSIDPAVFEDNDGEYYMYYGGIWGGQLQNYRNNQYDANRGEPADNEPALGPIVARLTADMKEFAEAPREIQILDQDGKPLLAGDHDRRFFEASWVHKYNDQYYFSYSTGNTHFLCYATGDNPYGPFTYRGQILTPVIGWTTHHSIAEYQGQWYLFYHDCVLSKGITHLRSVKMAPLTHKADGSIETITPYRD” it was “failed”. In the case of “MAEFLHRFAQGFAALNKDNLDQVAELYSEDVSFSDPMHDIHGLAAMQRYFAELYANVRDLHFDFHAFDEVRPGEGYLVWTMSYSHPRLAGGRTIRVEGCSHLKWRDKVYRHRDYFDAGALLYEHLP” it was “failed”. In the case of “MAEFTHLVNERRSASNFLSGHPITKEDLNEMFELVALAPSAFNLQHTKYVTVLDQDVKEKLKQAANGQYKVVSSSAVLLVLGDKQAYQQAADIYEGLKVLGILNKQEYDHMVQDTVSFYENRGEQFKRDEAIRNASLSAMMFMLSAAAAGWDTCPMIGFDAEAVKRILNIDDQFEVVMMITIGKEKTESRRPRGYRKPVNEFVEYM” it was “not failed”; in that of “MAEHAPHFTITPLGGLGEIGLNCQVWSTADSTVLIDCGLMFPDDYHLGVDVVIPRFDHILQQRDKVRGIILTHGHEDHIGALPWLVPHLRGIPIFGSRFTLALVEHKLREHGLADRVEFVPVTPGTPLALGDMTFHFLPVCHSIIEGYAVGVETPVGRVLHTGDFKIDPHPLEGSGTDLDLFRSFAGDEGVRLLLSDSTNIEREGHSLPEREILSSFRHIFTEAQGRIVITLFSSHIQRIQEVFDLAAEFGRTVVVSGRSLMTNIELAREHGFLRVPPALHMDAAGLPPVADRDMVLLVTGSQGEPLSALSRITMGEHKHLTIHEGDTVVMSSRIIPGNARAITRLINQIYRLGAEVYYDKFRAIHASGHAHRDELRAMIETMRPQCFVPVHGEYRHLVKHARLAQECGVAPERAFILENGDPLTLLPQGVRLGERIHVESILVDGKGVGDVGHSVLKERHILGGEGMVIVVLVVDEVTWDVLHGPEMLSKGFVFEQHYNHVLEDAKCIVLDIFENIPPGETERLQDRIRSALRRFFRKVLERDPIVVPVITTI”, “failed”. Consider “MAEHIITLVLSGERLDVTTSTPFVVALRDLLYEGDWELLKEDMKKKENIMKEVQTCEKLEKVVHLDETVYEPLIFPEFQEWLREENITPKDFKNVSLKGLYDLALEYADRNLYDIAHDIIKFMLDIDENYAPAYELKGSLLVEQGKIEEGIKFLDKAVEIDPWLVQAYASLGEAYYNLGDYEKAIHYWERELEYNPNDKITYFMITEAYYEMNRKDLAVKTLERLLEIDPDNIPALYQLSQLYRELGNEEKAREMEEKIMNCKPKYPTELEPWARVMLKHGRYKEVAEELEKIVESSPLNTLARLLLVVPYVKLGQIDKAREILDDIGQSNFWYYYGKKEILDELLTEEEKRACGIS”, for which the protein production result was “failed”. To “MAEILRAENIKKVIRGYEILKGISLSVKKGEFVSIIGASGSGKSTLLYILGLLDAPTEGKVFLEGKEVDYTNEKELSLLRNRKLGFVFQFHYLIPELTALENVIVPMLKMGKPKKEAKERGEYLLSELGLGDKLSRKPYELSGGEQQRVAIARALANEPILLFADEPTGNLDSANTKRVMDIFLKINEGGTSIVMVTHERELAELTHRTLEMKDGKVVGEITRV” belongs “not failed”; to “MAEKLLHTAESDAGIGSWVLHMESGRLEWSQAVHDIFGTDSATFDATEDAYFQRVHPDDRARVRRELDRHVLGDRPFDVEYRIVRPDGQVRELLERNHIQRQASGQVDHLWGTVIDMTEHKQ”, “not failed”. “MAEKNAYTVAQLADEYFERMIAGRWKHPNIVRSRIEKDIKPAIGSLKVEDVKPRHIDDVLKAVMKRGAPSIANDTLRWLKRMFNYAIKRHIIEYNPAAAFDPGDAGGKEKSLEHHHHHH”: the protein production entry is on record as “not failed”. Consider “MAEKSCSLTEFVGTAIGDTLGLVIANVDTALLDAMKLEKRYRSIGILGARTGAGPHIMAADEAVKATNTEVVSIELPRDTKGGAGHGSLIILGGNDVSDVKRGIEVALKELDRTFGDVYGNEAGHIELQYTARASYALEKAFGAPIGRACGIIVGAPASVGVLMADTALKSANVEVVAYSSPAHGTSFSNEAILVISGDSGAVRQAVTSAREIGKTVLATLGSEPKNDRPSYI”, for which the protein production result is “not failed”. In the case of “MAENAWVRVCALQELPELGARVLDVEGLPPIAIFRTASDQVFALRDRCPHKGGPLSQGIVAGETVTCPLHGWAIALQSGQACAPDVGCAPRYPVKVEAGAVWIVLQPVLQADAVAEPAALEHHHHHH” it was “failed”. Turning to “MAENKLGRDIPRKYANQYGVFEGELAHIKSYKESSRQVKPVKPSDDKLLSSIHEAIEKTRLKDGMTISFHHHFREGDYVMNMVLDEIAKMGIKDISIAPSSIANVHEPLIDHIKNGVVTNITSSGLRDKVGAAISEGIMENPVIIRSHGGRARAIATDDIHIDVAFLGAPSSDAYGNANGTRGKTTCGSLGYAMIDAKYADQVVIVTDTLVPYPNTPISIPQTDVDYIVVVDAIGDPEGIAKGATRYTKNPKELLIAEYAAKVITSSPYYKEGFSFQTGTGGASLAVTRFMREQMIKDDIKANFALGGITNAMVELLEEGLVDKILDVQDFDHPSAVSLDRNAEKHYEIDANMYASPLSKGSVINQLDICVLSALEVDTNFNVNVMTGSDGVIRGASGGHCDTAFAAKMSLVISPLVRGRIPTFVDKVNTVITPGTSVDVVVTEVGIAINPNRPDLIEYFKDLKVPQLTIEELKEKAYAIVGNPQPIQYGDKIVALIEYRDGSLIDVVRNVLEHHHHHH”, the protein production result was “not failed”. In the case of “MAEPGGHEGPASTQRAKVCETHTAMVFFVEDRVYKRKKPVDLGFLDYTTRSSRRAVCEREIELNRRFAPDVYLGLGELRTPGEQEAEPLVVMRRMPDDRRLSHLVRTGAPVADDLRAVARHLAAWHSAAPRGPAIAEQGTRDALAARWEASFTQVDVLAAKGPTRDEAGEVERLVRRYLAGRKPLFGLRIEQGRVLDGHGDLLADDVFCLGDGPRILDCLEFDDALRYVDGLDDAAFLAMDLESLGAPESAAFFLAQYGEYSGDPAPPSLWHHYVAYRAFVRAKVSLIQARQGAPGAHATARRLVRMALRHLRASAVGLTLVAGLPGTGKSTLSGALADRLGAVLLSSDRLRKEMAGLSPQQTASADYGEGLYTPEWTARTYAELLDRAAALLALGESVVLDATWIDSAQREAARHTAESAGADLVALHCHVPDDVTAARLSTRAPGASDADLGVAEAMAAEEQPWSGAVGVDTGGSLEAAVGQALAAVRPWGSDQAKVFRRPYMEPDLEHHHHHH” it was “failed”; in that of “MAESPTEEAATATAGAGAAGPGSSGVAGVVGVSGSGGGFGPPFLPDVWAAAAAAGGAGGPGSGLAPLPGLPPSAAAHGAALLSHWDPTLSSDWDGERTAPQCLLRIKRDIMSIYKEPPPGMFVVPDTVDMTKIHALITGPFDTPYEGGFFLFVFRCPPDYPIHPPRVKLMTTGNNTVRFNPNFYRNGKVCLSILGTWTGPAWSPAQSISSVLISIQSLMTENPYHNEPGFEQERHPGDSKNYNECIRHETIRVAVCDMMEGKCPCPEPLRGVMEKSFLEYYDFYEVACKDRLHLQGQTMQDPFGEKRGHFDYQSLLMRLGLIRQKVLERLHNENAEMDSDSSSSGTETDLHGSLRV”, “failed”; in that of “MAESTQMEVETATEGTVPLPPKPTFKPLKAHEMSDGKVQFRKIAVPPNRYSPLKKAWLDIYTPIYDQMKVDIRMNLKARKVELKTRADTPDISNLQKSADFVHAFMLGFDIPDAISLLRMDELYVESFEIKDVKTLKGEHLSRAIGRLSGKGGKTKFAIENSTKTRIVIADTRIHILGAFSNIKVARSSLCSLIMGSPAGKVYSKLRSVSARLNE”, “failed”. “MAETNTATSAVNAQITDAVTQVNTKVVGETPAMAMGNLLMSTSHALSNTAHNATAAQQQGQITMQAATVQGVNSLMSVSSAVIGRSSEEVIEKG”: the protein production result is on record as “failed”.

Consider “MAFAEGALDALKVAFQEGARSLVLLSPVLFRDALLSARLGALRFGLERGGVEGFARVGRALFFGALSAGSEEVYEAWKEGLSEAGLWRWLGRLEALADERRWLRGTAARVLVVQGALDAFTPPLHGAKVADFAKGEALRFVVDEAGHLVPWEAQEEVRDLVADFLLGEGFRPLPGGLAL”, for which the protein production result is “failed”. In the case of “MAFASLFTLPDYIAAVLDDVALMTKAAAKKTAGVAGDDLAPNANRVTGVSAERELPIVWPVAKGSFANKPVLVSAALLLSAFLPQLITPLLTAGGIYLCFEGVEKLLHKFLHRHDAHDDGGETAVNEQAKIKGAIRTDFILSAEIIIIALCVVEQYSLMTRSLVMAAIGIGMTVLVYGIVAVIVKLDDLGMLLMRRPQPRPFARFPARATLERWLDRVFRQPRCRAAFRFDCLRPALSLMNRFGRH” it was “failed”; in that of “MAFLTNDDVVLICDKNYDCPTKIQSVRQKDTTCVAFRPWSQTCEFAVGCAAGICLWSDSRRLNANRNIRRMMGTHHLQVLQDKGHNYVTSMQWNEDGTILVTAAFGSSHIMLWEPDCQQKIRLIPNPKSLGSFSLLRFSPDFHVLFCASCDAGASLCQLNRSKWKLKQILGQQRIQSAVWTTCGSTLLYACYGSTRVYSCTSDGEDSVFLRPQSIWRVQLIMDLQLVTTCAGQRLCCGEPQCLAMDPLGIYMASIFKEQSFVLLCILHTSRWGNVKLLPVEFIYCDMDGDQYPAYISFGVLKAEIRFLIIAWNTGHFQRYDITAQCFRDAQLYHNIN”, “failed”; in that of “MAFVVNGNEYNLAYYLTDEIYPKWATFIQSISLPQDEKASLFATNQEACRKDVERAFGVLQARFAIVKHPALIWDKIKIGNIMRACIILHNMIVEDERDGYTQYDVSDFAHPESASSSQVDFTYSTDMPSNLGNMMATRTRLRDRTKHEHLKADLVEHIWQKFGPIQA”, “failed”.

(Values after a protein production outcome set (Wang et al. 2014).)
